B1: CHD4-C-Flag, C-terminal Flag-tagged recombinant human CHD4 wild-type (enzyme, UniProt Q14839 1-1912, looked up)
chain: MASGLGSPSPCSAGSEEEDMDALLNNSLPPPHPENEEDPEEDLSETETPKLKKKKKPKKPRDPKIPKSKRQKKERMLLCRQLGDSSGEGPEFVEEEEEVALRSDSEGSDYTPGKKKKKKLGPKKEKKSKSKRKEEEEEEDDDDDSKEPKSSAQLLEDWGMEDIDHVFSEEDYRTLTNYKAFSQFVRPLIAAKNPKIAVSKMMMVLGAKWREFSTNNPFKGSSGASVAAAAAAAVAVVESMVTATEVAPPPPPVEVPIRKAKTKEGKGPNARRKPKGSPRVPDAKKPKPKKVAPLKIKLGGFGSKRKRSSSEDDDLDVESDFDDASINSYSVSDGSTSRSSRSRKKLRTTKKKKKGEEEVTAVDGYETDHQDYCEVCQQGGEIILCDTCPRAYHMVCLDPDMEKAPEGKWSCPHCEKEGIQWEAKEDNSEGEEILEEVGGDLEEEDDHHMEFCRVCKDGGELLCCDTCPSSYHIHCLNPPLPEIPNGEWLCPRCTCPALKGKVQKILIWKWGQPPSPTPVPRPPDADPNTPSPKPLEGRPERQFFVKWQGMSYWHCSWVSELQLELHCQVMFRNYQRKNDMDEPPSGDFGGDEEKSRKRKNKDPKFAEMEERFYRYGIKPEWMMIHRILNHSVDKKGHVHYLIKWRDLPYDQASWESEDVEIQDYDLFKQSYWNHRELMRGEEGRPGKKLKKVKLRKLERPPETPTVDPTVKYERQPEYLDATGGTLHPYQMEGLNWLRFSWAQGTDTILADEMGLGKTVQTAVFLYSLYKEGHSKGPFLVSAPLSTIINWEREFEMWAPDMYVVTYVGDKDSRAIIRENEFSFEDNAIRGGKKASRMKKEASVKFHVLLTSYELITIDMAILGSIDWACLIVDEAHRLKNNQSKFFRVLNGYSLQHKLLLTGTPLQNNLEELFHLLNFLTPERFHNLEGFLEEFADIAKEDQIKKLHDMLGPHMLRRLKADVFKNMPSKTELIVRVELSPMQKKYYKYILTRNFEALNARGGGNQVSLLNVVMDLKKCCNHPYLFPVAAMEAPKMPNGMYDGSALIRASGKLLLLQKMLKNLKEGGHRVLIFSQMTKMLDLLEDFLEHEGYKYERIDGGITGNMRQEAIDRFNAPGAQQFCFLLSTRAGGLGINLATADTVIIYDSDWNPHNDIQAFSRAHRIGQNKKVMIYRFVTRASVEERITQVAKKKMMLTHLVVRPGLGSKTGSMSKQELDDILKFGTEELFKDEATDGGGDNKEGEDSSVIHYDDKAIERLLDRNQDETEDTELQGMNEYLSSFKVAQYVVREEEMGEEEEVEREIIKQEESVDPDYWEKLLRHHYEQQQEDLARNLGKGKRIRKQVNYNDGSQEDRDWQDDQSDNQSDYSVASEEGDEDFDERSEAPRRPSRKGLRNDKDKPLPPLLARVGGNIEVLGFNARQRKAFLNAIMRYGMPPQDAFTTQWLVRDLRGKSEKEFKAYVSLFMRHLCEPGADGAETFADGVPREGLSRQHVLTRIGVMSLIRKKVQEFEHVNGRWSMPELAEVEENKKMSQPGSPSPKTPTPSTPGDTQPNTPAPVPPAEDGIKIEENSLKEEESIEGEKEVKSTAPETAIECTQAPAPASEDEKVVVEPPEGEEKVEKAEVKERTEEPMETEPKGAADVEKVEEKSAIDLTPIVVEDKEEKKEEEEKKEVMLQNGETPKDLNDEKQKKNIKQRFMFNIADGGFTELHSLWQNEERAATVTKKTYEIWHRRHDYWLLAGIINHGYARWQDIQNDPRYAILNEPFKGEMNRGNFLEIKNKFLARRFKLLEQALVIEEQLRRAAYLNMSEDPSHPSMALNTRFAEVECLAESHQHLSKESMAGNKPANAVLHKVLKQLEELLSDMKADVTRLPATIARIPPVAVRLQMSERNILSRLANRAPEPTPQQVAQQQ
notes: human CHD4, chromatin remodeling ATPase of NuRD, UniProt Q14839, 1912 aa; Construct (pDFB6 C-Flag) is described in Hoffmeister et al., 2017; also called hCHD4 wild-type; C-Flag hCHD4; not shown: Flag, C-terminal, kept
B2: CHD4-C-Flag Δ aa 217–360 (enzyme, human, UniProt Q14839 1-1912, looked up)
chain: MASGLGSPSPCSAGSEEEDMDALLNNSLPPPHPENEEDPEEDLSETETPKLKKKKKPKKPRDPKIPKSKRQKKERMLLCRQLGDSSGEGPEFVEEEEEVALRSDSEGSDYTPGKKKKKKLGPKKEKKSKSKRKEEEEEEDDDDDSKEPKSSAQLLEDWGMEDIDHVFSEEDYRTLTNYKAFSQFVRPLIAAKNPKIAVSKMMMVLGAKWREFSTNNAVDGYETDHQDYCEVCQQGGEIILCDTCPRAYHMVCLDPDMEKAPEGKWSCPHCEKEGIQWEAKEDNSEGEEILEEVGGDLEEEDDHHMEFCRVCKDGGELLCCDTCPSSYHIHCLNPPLPEIPNGEWLCPRCTCPALKGKVQKILIWKWGQPPSPTPVPRPPDADPNTPSPKPLEGRPERQFFVKWQGMSYWHCSWVSELQLELHCQVMFRNYQRKNDMDEPPSGDFGGDEEKSRKRKNKDPKFAEMEERFYRYGIKPEWMMIHRILNHSVDKKGHVHYLIKWRDLPYDQASWESEDVEIQDYDLFKQSYWNHRELMRGEEGRPGKKLKKVKLRKLERPPETPTVDPTVKYERQPEYLDATGGTLHPYQMEGLNWLRFSWAQGTDTILADEMGLGKTVQTAVFLYSLYKEGHSKGPFLVSAPLSTIINWEREFEMWAPDMYVVTYVGDKDSRAIIRENEFSFEDNAIRGGKKASRMKKEASVKFHVLLTSYELITIDMAILGSIDWACLIVDEAHRLKNNQSKFFRVLNGYSLQHKLLLTGTPLQNNLEELFHLLNFLTPERFHNLEGFLEEFADIAKEDQIKKLHDMLGPHMLRRLKADVFKNMPSKTELIVRVELSPMQKKYYKYILTRNFEALNARGGGNQVSLLNVVMDLKKCCNHPYLFPVAAMEAPKMPNGMYDGSALIRASGKLLLLQKMLKNLKEGGHRVLIFSQMTKMLDLLEDFLEHEGYKYERIDGGITGNMRQEAIDRFNAPGAQQFCFLLSTRAGGLGINLATADTVIIYDSDWNPHNDIQAFSRAHRIGQNKKVMIYRFVTRASVEERITQVAKKKMMLTHLVVRPGLGSKTGSMSKQELDDILKFGTEELFKDEATDGGGDNKEGEDSSVIHYDDKAIERLLDRNQDETEDTELQGMNEYLSSFKVAQYVVREEEMGEEEEVEREIIKQEESVDPDYWEKLLRHHYEQQQEDLARNLGKGKRIRKQVNYNDGSQEDRDWQDDQSDNQSDYSVASEEGDEDFDERSEAPRRPSRKGLRNDKDKPLPPLLARVGGNIEVLGFNARQRKAFLNAIMRYGMPPQDAFTTQWLVRDLRGKSEKEFKAYVSLFMRHLCEPGADGAETFADGVPREGLSRQHVLTRIGVMSLIRKKVQEFEHVNGRWSMPELAEVEENKKMSQPGSPSPKTPTPSTPGDTQPNTPAPVPPAEDGIKIEENSLKEEESIEGEKEVKSTAPETAIECTQAPAPASEDEKVVVEPPEGEEKVEKAEVKERTEEPMETEPKGAADVEKVEEKSAIDLTPIVVEDKEEKKEEEEKKEVMLQNGETPKDLNDEKQKKNIKQRFMFNIADGGFTELHSLWQNEERAATVTKKTYEIWHRRHDYWLLAGIINHGYARWQDIQNDPRYAILNEPFKGEMNRGNFLEIKNKFLARRFKLLEQALVIEEQLRRAAYLNMSEDPSHPSMALNTRFAEVECLAESHQHLSKESMAGNKPANAVLHKVLKQLEELLSDMKADVTRLPATIARIPPVAVRLQMSERNILSRLANRAPEPTPQQVAQQQ
notes: not shown: Flag, C-terminal, kept

Target: the molecule itself
Experiment: native gel or EMSA; 1 µg protein on a 4–16% NativePAGE gel with G-250 additive, room temperature, 150 V for 2 h, stained with Coomassie and silver

Protein | stoichiometry N
B1 | ≥ 3
B2 | ≥ 3

Reference: paper PMC10112965, “Characterization of the nuclear import of the human CHD4–NuRD complex” (Journal of Cell Science, 2023)
